# Like-named read-outs stand apart in the source and are kept apart here.
# Legend:
# Test in all cases: cell-based or functional assay
# [1] = target: HIV-1 SF162 Env (parental) (HIV-1 isolate SF162) (UniProt P19551)
# [2] = target: JR-FL Env N160K/E168K mutant (HIV-1 isolate JR-FL)
# [3] = target: SF162 Env with CRF01_AE consensus V3 region (HIV-1 isolate SF162; HIV-1 CRF01_AE consensus) (UniProt P19551)
# [4] = target: SF162 Env with CRF02_AG consensus V3 region (HIV-1 isolate SF162; HIV-1 CRF02_AG consensus) (UniProt P19551)
# [5] = target: SF162 Env with GKV at positions 167-169 (HIV-1 isolate SF162) (UniProt P19551)
# [6] = target: SF162 Env with V3 substitution A22T (HIV-1 isolate SF162) (UniProt P19551)
# [7] = target: SF162 Env with V3 substitution D25E (HIV-1 isolate SF162) (UniProt P19551)
# [8] = target: SF162 Env with V3 substitution T13H (HIV-1 isolate SF162) (UniProt P19551)
# [9] = target: SF162 Env with clade A1 consensus V3 region (HIV-1 isolate SF162; HIV-1 clade A1 consensus) (UniProt P19551)
# [10] = target: SF162 Env with clade B consensus V3 region (identical to that of JR-FL) (HIV-1 isolate SF162; HIV-1 clade B consensus) (UniProt P19551)
# [11] = target: SF162 Env with clade C consensus V3 region (HIV-1 isolate SF162; HIV-1 clade C consensus) (UniProt P19551)
# [12] = target: SF162 Env with clade F consensus V3 region (HIV-1 isolate SF162; HIV-1 clade F consensus) (UniProt P19551)
# [13] = target: SF162 Env with clade H consensus V3 region (HIV-1 isolate SF162; HIV-1 clade H consensus) (UniProt P19551)
# [14] = target: HIV-1 JR-FL Env (parental) (HIV-1 isolate JR-FL)
# [15] = target: HIV-1 SF162 Env (parental) (HIV-1 isolate SF162) (UniProt P19551); remark: listed apart in the source
# [16] = target: JR-FL Env with GK at positions 167-168 (HIV-1 isolate JR-FL)
# [17] = target: SF162 Env with GKV at positions 167-169 (HIV-1 isolate SF162) (UniProt P19551); remark: listed apart in the source
# [18] = target: SF162 Env with NI at positions 160-161 (HIV-1 isolate SF162) (UniProt P19551)
# [19] = target: SF162 Env with NI at positions 160-161 and GKV at positions 167-169 (HIV-1 isolate SF162) (UniProt P19551)
# [20] = target: SF162 Env with clade B consensus V3 region (identical to that of JR-FL) (HIV-1 isolate SF162; HIV-1 clade B consensus) (UniProt P19551); remark: listed apart in the source
# [21] = target: chimeric JR-FL Env with the V1/V2 domain of SF162 (HIV-1 isolate JR-FL; HIV-1 isolate SF162) (UniProt P19551)
# [22] = target: chimeric SF162 Env with the V1/V2 domain of JR-FL (HIV-1 isolate SF162; HIV-1 isolate JR-FL) (UniProt P19551)
substance,measurement,setting,value
monoclonal antibody 2909,ND50 (pseudovirus neutralization),[1],5.8e-05 µg/mL
same,ND50 (pseudovirus neutralization),[2],< 0.04 ng/mL
same,neutralization potency relative to 2F5,[2],> 140 fold
same,neutralization potency relative to 2G12,[2],> 500 fold
same,neutralization potency relative to IgG-b12,[2],20 fold
same,neutralization potency relative to a pool of potent V3-specific mAbs,[2],4000 fold
same,percent neutralization at 20 ng/ml (% neutralization at 20 ng/ml),[2],> 99
same,ND50 (pseudovirus neutralization),[3],> 20 µg/mL
same,ND50 ratio (fold increase in ND50 over the SF162 sequence),[3],> 344000 fold
same,ND50 (pseudovirus neutralization),[4],0.037 µg/mL
same,ND50 ratio (fold increase in ND50 over the SF162 sequence),[4],637 fold
same,"fold increase in 2909 concentration required for 50% neutralization, over SF162",[5],> 1000 fold
same,fold increase in ND50 over SF162,[6],46 fold
same,fold increase in ND50 over SF162,[7],2.3 fold
same,fold increase in ND50 over SF162,[8],8.3 fold
same,ND50 (pseudovirus neutralization),[9],0.0064 µg/mL
same,ND50 ratio (fold increase in ND50 over the SF162 sequence),[9],110 fold
same,ND50 (pseudovirus neutralization),[10],0.051 µg/mL
same,ND50 ratio (fold increase in ND50 over the SF162 sequence),[10],879 fold
same,ND50 (pseudovirus neutralization),[11],0.0048 µg/mL
same,ND50 ratio (fold increase in ND50 over the SF162 sequence),[11],83 fold
same,ND50 (pseudovirus neutralization),[12],0.0076 µg/mL
same,ND50 ratio (fold increase in ND50 over the SF162 sequence),[12],131 fold
same,ND50 (pseudovirus neutralization),[13],0.17 µg/mL
same,ND50 ratio (fold increase in ND50 over the SF162 sequence),[13],2930 fold
same,ND50 (pseudovirus neutralization),[14],> 10 µg/mL
same,ND50 (pseudovirus neutralization),[15],0.00049 µg/mL
same,ND50 (pseudovirus neutralization),[16],> 10 µg/mL
same,ND50 (pseudovirus neutralization),[17],0.54 µg/mL
same,ND50 (pseudovirus neutralization),[18],> 10 µg/mL
same,ND50 (pseudovirus neutralization),[19],> 10 µg/mL
same,ND50 (pseudovirus neutralization),[20],0.145 µg/mL
same,ND50 (pseudovirus neutralization),[21],0.065 µg/mL
same,ND50 (pseudovirus neutralization),[22],> 10 µg/mL

# Reference: patent publication US20110311569A1
